Assay results: publication PMC466950 (Science Advances, 2024)
Blank lines part the entries; values can stand above or below the molecule they belong to.

Columns and labels:
[1] = molecular target: human E2 subunit within hCore (human) (UniProt P10515); assay: gel densitometry of the purified complex
[2] = molecular target: porcine E2 of native PDHc (Sus scrofa domesticus (endogenous in porcine liver)); assay: gel densitometry of the purified complex
[3] = molecular target: the molecule itself; assay: cryo-EM structure

E3BP chains per 60-subunit core (E3BP molecules per 60-subunit assembly) [1]: 13
Molecule: human E3BP subunit within hCore (from UniProt O00330 54-501) (natural protein)

E3BP chains per 60-subunit core (E3BP molecules per 60-subunit assembly) [2]: 13
Molecule: porcine E3BP of native PDHc (natural protein)

B1: human E2 homo-60-mer (enzyme)
chain: SLPPHQKVPLPSLSPTMQAGTIARWEKKEGDKINEGDLIAEVETDKATVGFESLEECYMAKILVAEGTRDVPIGAIICITVGKPEDIEAFKNYTLDSSAAPTPQAAPAPTPAATASPPTPSAQAPGSSYPPHMQVLLPALSPTMTMGTVQRWEKKVGEKLSEGDLLAEIETDKATIGFEVQEEGYLAKILVPEGTRDVPLGTPLCIIVEKEADISAFADYRPTEVTDLKPQVPPPTPPPVAAVPPTPQPLAPTPSAPCPATPAGPKGRVFVSPLAKKLAVEKGIDLTQVKGTGPDGRITKKDIDSFVPSKVAPAPAAVVPPTGPGMAPVPTGVFTDIPISNIRRVIAQRLMQSKQTIPHYYLSIDVNMGEVLLVRKELNKILEGRSKISVNDFIIKASALACLKVPEANSSWMDTVIRQNHVVDVSVAVSTPAGLITPIVFNAHIKGVETIANDVVSLATKAREGKLQPHEFQGGTFTISNLGMFGIKNFSAIINPPQACILAIGASEDKLVPADNEKGFDVASMMSVTLSCDHRVVDGAVGAQWLAEFRKYLEKPITMLL
stoichiometry N [3]: 60 subunits

B2: human E2 subunit within hCore (enzyme)
chain: B1 chain
modifications: one lipoamide in each of the two lipoyl domains (fully lipoylated by ESI-MS); N-terminal methionine present
binding result [3]: binds
